Measured values published in paper doi:10.1101/2020.02.11.943597.

Experiments:
[1] = target: T1, N-cadherin (human (endogenous in primary fibroblasts)), P19022; test: AFM single-cell force spectroscopy; settings: remark: other sources report otherwise
T1 chain: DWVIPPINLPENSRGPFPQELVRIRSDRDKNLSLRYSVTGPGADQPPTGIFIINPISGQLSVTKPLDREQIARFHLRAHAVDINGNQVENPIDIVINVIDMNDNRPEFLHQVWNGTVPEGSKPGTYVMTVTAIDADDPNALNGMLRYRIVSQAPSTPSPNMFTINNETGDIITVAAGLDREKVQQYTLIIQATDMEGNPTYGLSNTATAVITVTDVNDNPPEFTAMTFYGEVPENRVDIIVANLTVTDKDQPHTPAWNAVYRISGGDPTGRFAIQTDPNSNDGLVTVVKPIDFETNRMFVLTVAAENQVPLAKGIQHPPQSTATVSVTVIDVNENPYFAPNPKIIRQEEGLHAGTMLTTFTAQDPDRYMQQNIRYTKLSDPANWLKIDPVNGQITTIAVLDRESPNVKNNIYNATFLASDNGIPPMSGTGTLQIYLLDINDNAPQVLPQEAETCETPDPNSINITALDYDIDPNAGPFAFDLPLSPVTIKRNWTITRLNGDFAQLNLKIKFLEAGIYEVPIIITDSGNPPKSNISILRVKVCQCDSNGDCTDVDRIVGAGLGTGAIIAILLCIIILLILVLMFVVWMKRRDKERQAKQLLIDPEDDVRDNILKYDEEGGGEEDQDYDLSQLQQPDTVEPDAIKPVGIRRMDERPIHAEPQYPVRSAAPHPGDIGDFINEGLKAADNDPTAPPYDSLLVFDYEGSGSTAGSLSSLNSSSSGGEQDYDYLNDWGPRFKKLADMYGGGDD

[2] = target: T1, N-cadherin (human (endogenous in …)); test: AFM single-cell force spectroscopy; settings: remark: other sources report otherwise

B1: N-cadherin, P19022 160-906 (natural protein)
chain: DWVIPPINLPENSRGPFPQELVRIRSDRDKNLSLRYSVTGPGADQPPTGIFIINPISGQLSVTKPLDREQIARFHLRAHAVDINGNQVENPIDIVINVIDMNDNRPEFLHQVWNGTVPEGSKPGTYVMTVTAIDADDPNALNGMLRYRIVSQAPSTPSPNMFTINNETGDIITVAAGLDREKVQQYTLIIQATDMEGNPTYGLSNTATAVITVTDVNDNPPEFTAMTFYGEVPENRVDIIVANLTVTDKDQPHTPAWNAVYRISGGDPTGRFAIQTDPNSNDGLVTVVKPIDFETNRMFVLTVAAENQVPLAKGIQHPPQSTATVSVTVIDVNENPYFAPNPKIIRQEEGLHAGTMLTTFTAQDPDRYMQQNIRYTKLSDPANWLKIDPVNGQITTIAVLDRESPNVKNNIYNATFLASDNGIPPMSGTGTLQIYLLDINDNAPQVLPQEAETCETPDPNSINITALDYDIDPNAGPFAFDLPLSPVTIKRNWTITRLNGDFAQLNLKIKFLEAGIYEVPIIITDSGNPPKSNISILRVKVCQCDSNGDCTDVDRIVGAGLGTGAIIAILLCIIILLILVLMFVVWMKRRDKERQAKQLLIDPEDDVRDNILKYDEEGGGEEDQDYDLSQLQQPDTVEPDAIKPVGIRRMDERPIHAEPQYPVRSAAPHPGDIGDFINEGLKAADNDPTAPPYDSLLVFDYEGSGSTAGSLSSLNSSSSGGEQDYDYLNDWGPRFKKLADMYGGGDD
median rupture force [1]: 51.9 pN
median rupture force [2]: 45.2 pN
